Target: CD19 antigen on NALM-6 tumor cells (pre-B cell leukemia) (human) (UniProt P15391)
Assay: cell-based or functional assay

Sequence of CD19 antigen on NALM-6 tumor cells (pre-B cell leukemia) (human) (P15391 20-556): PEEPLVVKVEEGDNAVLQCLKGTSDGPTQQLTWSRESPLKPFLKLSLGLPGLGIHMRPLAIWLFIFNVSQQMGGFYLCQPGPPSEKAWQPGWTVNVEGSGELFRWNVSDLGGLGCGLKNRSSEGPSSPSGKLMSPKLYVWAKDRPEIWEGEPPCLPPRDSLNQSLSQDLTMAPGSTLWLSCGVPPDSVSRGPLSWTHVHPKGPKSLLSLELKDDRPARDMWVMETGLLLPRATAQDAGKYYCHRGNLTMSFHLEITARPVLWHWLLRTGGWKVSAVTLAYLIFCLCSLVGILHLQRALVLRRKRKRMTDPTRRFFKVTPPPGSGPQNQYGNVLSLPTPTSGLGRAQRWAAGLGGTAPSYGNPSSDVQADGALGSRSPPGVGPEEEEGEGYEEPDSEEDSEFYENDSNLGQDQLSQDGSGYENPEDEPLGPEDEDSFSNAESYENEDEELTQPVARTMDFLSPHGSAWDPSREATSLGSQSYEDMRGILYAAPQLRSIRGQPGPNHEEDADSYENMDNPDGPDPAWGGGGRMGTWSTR

In the case of “Anti-hCD19-CD3 bispecific T cell engager (BiTE) (InvivoGen, #bimab-hcd19cd3) (bispecific antibody)”, the BiTE-mediated NALM-6 tumor killing (luciferase-based readout, Bcl-xL-transfected CD8+ T cells as effectors) is reported as > 95%.

From patent US20230302054A1
